1 substance from patent publication US20050277175 can be followed below.

This data set concerns the target bovine aggrecan (UniProt P13608).

bovine aggrecan, sequence (P13608 20-2364): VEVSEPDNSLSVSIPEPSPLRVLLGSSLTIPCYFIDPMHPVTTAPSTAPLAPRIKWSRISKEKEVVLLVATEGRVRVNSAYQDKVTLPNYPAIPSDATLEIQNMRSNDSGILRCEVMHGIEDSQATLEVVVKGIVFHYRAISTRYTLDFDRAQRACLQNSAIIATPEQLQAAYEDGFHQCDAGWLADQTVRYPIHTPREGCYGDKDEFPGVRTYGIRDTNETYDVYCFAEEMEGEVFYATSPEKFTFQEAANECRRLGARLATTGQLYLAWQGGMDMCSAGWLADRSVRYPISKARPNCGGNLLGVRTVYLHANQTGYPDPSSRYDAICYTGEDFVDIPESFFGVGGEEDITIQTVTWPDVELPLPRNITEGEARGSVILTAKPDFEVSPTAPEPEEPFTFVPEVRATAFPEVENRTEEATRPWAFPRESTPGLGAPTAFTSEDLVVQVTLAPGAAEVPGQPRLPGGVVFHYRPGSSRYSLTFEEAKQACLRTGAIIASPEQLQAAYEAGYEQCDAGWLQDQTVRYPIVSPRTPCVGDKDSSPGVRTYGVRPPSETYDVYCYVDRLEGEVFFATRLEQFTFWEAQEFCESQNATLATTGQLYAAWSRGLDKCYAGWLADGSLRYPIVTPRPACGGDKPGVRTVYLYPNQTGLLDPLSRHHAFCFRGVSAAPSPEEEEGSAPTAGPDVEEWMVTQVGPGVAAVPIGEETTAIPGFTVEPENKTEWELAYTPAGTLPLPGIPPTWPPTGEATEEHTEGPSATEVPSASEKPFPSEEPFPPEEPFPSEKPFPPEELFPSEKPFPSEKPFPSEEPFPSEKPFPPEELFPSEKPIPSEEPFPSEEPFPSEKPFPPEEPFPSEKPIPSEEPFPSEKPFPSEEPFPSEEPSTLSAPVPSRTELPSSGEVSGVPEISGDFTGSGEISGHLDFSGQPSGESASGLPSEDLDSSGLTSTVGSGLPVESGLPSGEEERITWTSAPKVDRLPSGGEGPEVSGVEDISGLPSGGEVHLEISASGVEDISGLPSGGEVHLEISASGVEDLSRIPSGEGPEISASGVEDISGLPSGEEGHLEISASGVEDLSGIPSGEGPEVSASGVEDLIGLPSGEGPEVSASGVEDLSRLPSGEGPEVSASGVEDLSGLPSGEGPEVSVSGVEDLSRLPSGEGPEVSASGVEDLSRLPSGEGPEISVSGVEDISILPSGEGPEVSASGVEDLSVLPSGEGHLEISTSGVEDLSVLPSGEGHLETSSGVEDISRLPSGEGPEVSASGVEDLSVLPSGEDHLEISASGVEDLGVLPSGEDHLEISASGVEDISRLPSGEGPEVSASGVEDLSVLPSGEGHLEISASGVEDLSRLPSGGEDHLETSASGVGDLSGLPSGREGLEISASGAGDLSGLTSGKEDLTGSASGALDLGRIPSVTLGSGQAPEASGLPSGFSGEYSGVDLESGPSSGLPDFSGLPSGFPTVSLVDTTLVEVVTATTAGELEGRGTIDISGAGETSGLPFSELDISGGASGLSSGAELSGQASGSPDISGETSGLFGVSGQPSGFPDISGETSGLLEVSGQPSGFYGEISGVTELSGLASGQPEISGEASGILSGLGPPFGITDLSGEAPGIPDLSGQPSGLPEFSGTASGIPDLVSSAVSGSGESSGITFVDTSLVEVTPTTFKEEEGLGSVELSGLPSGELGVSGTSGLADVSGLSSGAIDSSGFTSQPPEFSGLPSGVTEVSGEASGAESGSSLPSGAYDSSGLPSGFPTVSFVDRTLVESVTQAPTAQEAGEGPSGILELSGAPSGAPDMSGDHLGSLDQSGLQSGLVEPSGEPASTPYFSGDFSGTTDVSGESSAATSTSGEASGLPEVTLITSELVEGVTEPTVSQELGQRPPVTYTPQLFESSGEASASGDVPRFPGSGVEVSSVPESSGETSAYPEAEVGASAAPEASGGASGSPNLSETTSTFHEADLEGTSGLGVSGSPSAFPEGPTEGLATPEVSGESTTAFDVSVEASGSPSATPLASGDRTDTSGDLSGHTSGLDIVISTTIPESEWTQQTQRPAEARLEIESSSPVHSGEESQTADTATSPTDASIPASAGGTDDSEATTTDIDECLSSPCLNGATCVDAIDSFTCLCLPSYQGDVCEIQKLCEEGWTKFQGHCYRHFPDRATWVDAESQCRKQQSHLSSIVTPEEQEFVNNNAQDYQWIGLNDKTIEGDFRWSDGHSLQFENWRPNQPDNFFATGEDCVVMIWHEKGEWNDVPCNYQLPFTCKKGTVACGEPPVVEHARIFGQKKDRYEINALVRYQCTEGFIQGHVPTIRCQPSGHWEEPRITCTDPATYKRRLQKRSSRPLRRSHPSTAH

In the case of “recombinant aggrecanase 1 protein (ADAMTS-4)”, the “aggrecanase activity (digestion of bovine aggrecan, neoepitope Western blot with C1 MAb)” value is reported as “Positive control is recombinant aggrecanase 1 protein (ADAMTS-4)”.
